# Laboratory results taken from the supplement of paper PMC12042874.
# ± gives the uncertainty stated by the source.
# Assay: amyloid nucleation score (Sup35N fusion, yeast selection) (log enrichment); library NNK2; higher = more nucleation; inactive = no reads after selection
# Procedure, shortened: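 The nucleation score is a DiMSum log enrichment of output over input reads, centred on the mode score of non-aggregating sequences. Sequences under 100 input reads were excluded, and reads came from Illumina sequencing of plasmid inserts. Psi-negative yeast expressing Sup35N fused to peptides of 20 random codons were induced with 100 μM copper sulfate for 24 hours and grown 7 days at 30°C on medium lacking adenine and uracil. Random libraries had three technical output replicates.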
row,Substance,amyloid nucleation score
1,GSRYTEKIPGNRNRSRISL,-0.484 ± 0.35
2,SNPSVNLCRWIDACNSDLIT,0.165 ± 1
3,HLDPRAPSVVWTMADGEEDA,0.837 ± 0.22
4,AKNVKKT,-0.575 ± 0.32
5,NFGGIKKLYNTMRSYWLGTR,-1.22 ± 0.45
6,LSCNMFDPVGQWCCGKKVGA,1.07 ± 0.42
7,TLDNIRFKLQTAGTAIMWRR,0.311 ± 0.24
8,MSFRSRPGLDDGWMIRWRGR,0.446 ± 0.49
9,TVYSGILKSY,-0.574 ± 1
10,IMYLLGKGLWTVAVYPSRYP,-0.806 ± 0.61
11,HINFRSVITVV,-0.81 ± 0.44
12,LQNFRCTGCVLFCMHICPAM,4.84 ± 0.075
13,KWRDRNDINNFRQGLLCSVN,3.03 ± 0.14
14,LNYLCVHTLIACVSWVPVSA,2.36 ± 0.23
15,STNRWQHIL,-0.382 ± 0.48
16,IKSRICISSYNNDMCGRFVL,-1.86 ± 0.62
17,GEGVSIMYRWHL,1.21 ± 0.1
18,LSLVNGLRDVFTSGWALRCW,4.89 ± 0.05
19,YVKVRWCGTSPCNEFLRSSY,0.429 ± 0.66
20,SFDVLL,-0.568 ± 0.64
21,RCFCG,0.226 ± 0.35
22,RKSYGRSWSSGNLYYNLHGD,-1.18 ± 1.1
23,LDYLGETNLLVRWHLAVTAS,0.626 ± 0.16
24,NIWRRSSSV,inactive
25,QFRPLDCCLLNFDDSRIYCL,4.88 ± 0.074

row,Substance,amyloid nucleation score
1,VYALTGMDKYGGLALYLSWR,0.307 ± 0.44
2,DIGRLTLHGRVSADG,0.748 ± 0.25
3,SFLIFRDVSFAGEGL,-1.21 ± 1.1
4,TFNISLAWCEFFSHIFLLN,inactive
5,DEIQGLNRRYLPRG,0.936 ± 0.52
6,ESIGVINCYWIWATSIPLEG,inactive
7,GHSIVLCCRSESPLKKSRYM,-0.432 ± 1
8,IWHSVWYP,-0.318 ± 0.76
9,NNNGV,1.45 ± 0.13
10,QRAYVPQTLGVRISVSSRWQ,3.41 ± 0.096
11,AMDMI,0.833 ± 0.8
12,DKGEEPELIV,0.742 ± 0.16
13,FNLTFNHF,6.041 ± 0.045
14,SRRVLYMVVPPLVF,-1.36 ± 0.54
15,LLKKRANGYHYSKNLKCPAR,-1.29 ± 1.1
16,YNWHMSHFYDLGP,4.99 ± 0.099
17,ILTFRVYPIPFDFYFGGLEL,0.034 ± 1.1
18,YNYASYLVHIALLFLSYIRR,0.236 ± 1.1
19,LFVLVREVNVLTFLCPSEDQ,8.52 ± 0.066
20,DIFLTLEFYISVETKGAKKA,3.92 ± 0.05
21,HSLVTDEASCLTDRGHVGQV,1.22 ± 0.27
22,MATSMNQHGVRMVWSSRLGS,4.57 ± 0.051
23,SVSVYTASS,inactive
24,VNSNINFMEGYGCFKKIVNF,-1.36 ± 0.75
25,LRLFFNYWSNWGATEKNYIL,-1.52 ± 1.1

row,Substance,amyloid nucleation score
1,LTTGKLYFSLEMYT,-0.653 ± 0.63
2,SCRRADFGMAVVHSLLVCGE,0.709 ± 0.66
3,NGNTVVLGSLIFYKLVLVAS,5.64 ± 0.033
4,FWSRKCSFCFNGASVSGEVM,-0.088 ± 1.1
5,YMDMWGR,-0.81 ± 0.41
6,WLDSQWNLYLDLYHLYRSCR,3.22 ± 0.12
7,SLHRFYYSHLYALRMRGNSR,6.16 ± 0.091
8,LSDIRWMSCGGVL,-0.602 ± 1.1
9,KLYFCYLEI,-1.25 ± 1.1
10,LVDNLR,-0.441 ± 1.1
11,DYANELVA,0.099 ± 0.25
12,WRKRYEYTVRVGRSAKSTLM,0.455 ± 0.37
13,CIYRHAFVLFTKPLNFGRVR,-0.166 ± 0.49
14,FIMCSDYPYHITPYPWLGPG,-0.59 ± 0.37
15,LDATNSKNVYRMPAWKGNMR,0.564 ± 0.32
16,GTSVIHISYFIYYPGDRVRR,6.811 ± 0.052
17,PLFTINRVVMPNINVETFAG,-0.522 ± 0.39
18,FMMIRV,inactive
19,RFWIEVEVYDVISFVYLERW,0.428 ± 0.34
20,RSNFIQDSLSYFDILAIRRG,inactive
21,LGDRCNS,2.36 ± 0.11
22,DHHDTTHYYIWVDKYKYLV,-0.216 ± 0.64
23,RKVLLVGCCPLVLKIVFCSV,7.734 ± 0.048
24,VKTKAVTRVMIP,0.589 ± 0.35
25,VHIMNSLVGSIVLGSSRRLS,5.77 ± 0.062

row,Substance,amyloid nucleation score
1,LIVCWGMWFLQW,-1.74 ± 1.1
2,RMFIVHSCSTWLTNNGLNHM,5.318 ± 0.036
3,DYTSCEDVLSVVRPWNYNVE,0.714 ± 0.47
4,LNSYFTFVWTSVFGCVDPYE,5.723 ± 0.035
5,SKGSWIDVSYDLV,-0.132 ± 0.37
6,MFVLFWVVNSTDLCGTAPLV,0.205 ± 0.61
7,SMDRIQEGLHRQLVFDVSE,0.624 ± 0.35
8,LWIYNYVIRLDFICMERILL,inactive
9,WCFLT,-0.343 ± 1.1
10,TIGEVYGYLRSWIYWGSEST,0.154 ± 0.46
11,CISTLIGTRPTAYLLLLRDI,inactive
12,CVACLDM,inactive
13,EIIFVMPVFYIFKTLCLLSA,0.332 ± 0.16
14,VLSLLMPVVRIVWKFN,-0.084 ± 0.76
15,PGSAIRVVSMRLWGRRRSAG,0.458 ± 0.45
16,QRCWRSGTFSGM,-0.107 ± 1
17,ANKTVFVLEMVGVRGFYLMP,2.66 ± 0.098
18,CFFLTHCRDIRNVSTV,-0.234 ± 0.37
19,RFNIFVLLFLVPEVGLHMVV,inactive
20,YVYTLGI,-0.337 ± 1.1
21,DIVNLSEDGLSSNELFIARM,-0.52 ± 1.1
22,VLNRLERASSVREQGIIRGR,0.252 ± 0.29
23,LTLLFGRSVSEWVWNLMDRC,-0.461 ± 0.29
24,LPHLCCIIY,2.56 ± 0.066
25,IVISWIPDNPNQMDALCRRY,0.912 ± 0.34

row,Substance,amyloid nucleation score
1,QFCCVESLGLLALAWLFTGF,3.62 ± 0.11
2,LMTSPSFIYVWSYTGFRMFG,4.983 ± 0.042
3,CCVYAASLLPFQLVAALLTD,0.91 ± 0.34
4,GTVLAIRQLVSRCSGGVVGG,1.28 ± 0.24
5,CRGTIWIAYSRYYYYRMNDF,inactive
6,HTSSLF,-0.156 ± 0.3
7,GCWSPKLSIGRRSRSALYRG,1.2 ± 0.66
8,SPRSAIFSLTTQVF,3.34 ± 0.13
9,SWGGLSKGYCLFQSWRVVLG,3.75 ± 0.054
10,LSALCGIGCDCLPTLTKLIV,-0.089 ± 0.25
11,PFWVGNGKQGVFGKFDCYVI,-1.19 ± 0.34
12,RYRWARLHGVLVHDWLLLIW,inactive
13,DLWRY,0.102 ± 0.77
14,ARRVQRKSIPTFVSSAMMSD,-0.25 ± 0.36
15,FTILTP,-0.375 ± 0.79
16,LWEVLWVFFDLNNVRLTMCN,-0.93 ± 0.78
17,NPIGFFHDLGVWIWWSSMAT,-1.26 ± 1.1
18,ENEWCCLWGRAKRVAGVQEV,0.495 ± 0.62
19,VRTIF,inactive
20,AYSEPAISQRFFLSGLKSII,-0.885 ± 0.34
21,NKRSCNGCGSRAHQDSL,-0.176 ± 1.1
22,LMRLDLGT,-0.518 ± 0.32
23,CVSSRDRG,0.439 ± 0.27
24,LNRYYSLPRLSVPSSVRSCG,-1.18 ± 0.44
25,LVMTHAMFVSLWCGRTVFLL,0.014 ± 0.49

row,Substance,amyloid nucleation score
1,FDVESMSNDLMAQWHKMLAC,-0.452 ± 0.48
2,FISRVMVSGVLTGLAWPM,0.151 ± 0.43
3,KMDTRSRLKQWKRFFIHIPK,-0.92 ± 0.49
4,RRFEPKVRKKHQGLFLWYSV,0.028 ± 0.25
5,SNESNFIVICVCMDCIRGGG,inactive
6,DGTGYGTSKLTWWRDFLKRC,-0.192 ± 0.63
7,QWGSMVSCRCYRPPTEGPGW,-0.605 ± 0.76
8,TILKDSTPAVYNVRMRFKAW,inactive
9,LSRFFFNRAPRKVTGLSVRY,0.96 ± 0.21
10,FLNHCDYCVVKSRLVDMKLN,-0.296 ± 0.76
11,KVMIVNRVIYTNRFNQGLTM,7.705 ± 0.051
12,FCPRGFTLSSKFLCLNSLRM,-0.344 ± 0.33
13,MYCYRNFLSDDINRGGALVM,-0.998 ± 0.74
14,MLALLCVNNWEGCYWYVGSV,6.827 ± 0.063
15,SKCLSIPISCFTCVLLCYFF,0.936 ± 0.17
16,SDHMYMIFMTMFVVVSHWVI,-0.795 ± 0.76
17,FFCGMRPYVLVNCLCVFREN,6.374 ± 0.029
18,HCSWLYVLSYVSMSNICIGY,-0.876 ± 0.76
19,YLWWMKSNY,inactive
20,LSHKAEYLCVFSWACRIMGL,0.155 ± 0.42
21,LCRIDRVWQLGYRWLYQDVV,4.34 ± 0.084
22,QNLASIDLDYFFSEYYPLLA,-1.37 ± 0.42
23,PNVAIYIPTGYGLTVTPPAS,-1.02 ± 0.76
24,FLMYFVNR,2.83 ± 0.055
25,GRSFFMF,2.5 ± 0.091

row,Substance,amyloid nucleation score
1,YGFSGMMNSFSFHGC,6.07 ± 0.083
2,DFSAFNEGHQINHLIQGSV,-1.35 ± 0.62
3,KMLCYMYVVTHNVTLRHRLY,0.196 ± 0.42
4,GIFWTVNIGEICGAIEWSEG,0.276 ± 0.29
5,CASAVLCCPKTSR,-0.02 ± 0.34
6,VYNWGGRLKP,0.147 ± 0.49
7,WSDACSGCNFK,inactive
8,ILCLFTLSSSKCYGG,5.689 ± 0.037
9,CSSDSIYSSWWFSLYNITGE,inactive
10,FRFRSNSMSFHNADISLLSV,inactive
11,FGNVMMTDAV,-0.631 ± 0.46
12,LNSPLIPVRLMGVVRFQLLD,-0.459 ± 0.39
13,SFSDVLNSGVRCF,0.234 ± 0.35
14,SMRCLIMCATDCRNDMGRLW,5.362 ± 0.039
15,VLITKYSFTRLEFTIKVTSS,0.386 ± 0.57
16,IAIPSDF,-0.214 ± 0.49
17,YYSWFSVYSIIILHNQQFRL,inactive
18,SACIIVN,-0.012 ± 1.1
19,IYNVSQLRTGTDMFNL,0.721 ± 0.51
20,PQRLWISISAHTLKFPHL,3.77 ± 0.073
21,YKDHGCNDSWK,-0.572 ± 0.44
